Data taken from publication PMC8808184 (2021).

Key:
hCNTN5 = biological target: T1, hCNTN5 (Homo sapiens (Human), UniProt O94779); assay: BLI steady state, CNTN FN1-FN3 over biotinylated E1
T1 chain: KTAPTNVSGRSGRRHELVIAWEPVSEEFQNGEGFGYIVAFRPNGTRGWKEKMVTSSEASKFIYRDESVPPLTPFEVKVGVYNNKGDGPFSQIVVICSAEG

hCNTN3 = biological target: T2, hCNTN3 (Homo sapiens (Human), UniProt Q9P232); assay: as above
T2 chain: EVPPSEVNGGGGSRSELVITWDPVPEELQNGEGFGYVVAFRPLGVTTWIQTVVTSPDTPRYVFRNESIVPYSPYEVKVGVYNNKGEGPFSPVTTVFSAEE

B1: hAPLP1 (protein)
chain: GEFVSEALLVPEGCRFLHQERMDQCESSTRRHQEAQEACSSQGLILHGSGMLLPCGSDRFRGVEYVCCPP
hCNTN5
  Kd: 10.9 µM
hCNTN3
  Kd: 9.1 µM

B2: hAPLP2 (protein)
chain: GEFVSDVLLVPEKCQFFHKERMEVCENHQHWHTVVKEACLTQGMTLYSYGMLLPCGVDQFHGTEYVCCPQ
hCNTN5
  Kd: 38.6 µM
